The values that follow come from the DeepSol protein solubility set.

The nature of this series: soluble on expression in E. coli; label from the status in PepcDB or PDB records.
Turning to “GPGSMSFYRTKKVIINSLFSDSSWYCTFRFRNPMTSQRRSCHEGIPSGRVTGNSVTLLSEMRENNAIGVEAVGKERKRPDAMTVLSNVFRTNPAALRLHRELTICIASGETERASDLASVLAGLVKRTTRLDDIEQKCAEEGGRSKVPNDPVPVVGEETVEFLTSNVVRGVSSQSRLESIEILHNDAPGAPYLGEKVAEAAEVKDSEPLPFWKNPDALRLTLLESAFEMALADDNENPLQPGSVEADCLEKERMEILDAYLKREGKRWELQKAAVARAIVATVKDLGVVPEDIHAALQAEGELRLNGSDKRFNVLKHCNIIVRGEVPEVMELQMKGTATRNVEASVSQELDVLINRMSSTGTPLSQRDKDLALFELVMSKSKMRYVVGLHRELQVALDTAPALRKLAVEHRAKSGSVLFVERALKMLNKVAPDGSETTAEDVECIDTISTPVLPFTFMLKMCLWFEAPVAM”, the “soluble on expression in E. coli” value is recorded as “not soluble”.
Turning to “MAHHHHHHMVDYGEGGKNGSLDTVRQTLVCATRILMLAVSCKKVQLIYTLLPFMALIFKELLVSDDEERLRALFSDAKGQCALAGLRRSTANLSLLLDTEQDFTTLSSPWSFSYDTSEVGMKEIRSLTTFLVSGDSGLSEALEYVTTDCLRSGRLLTLYEIVRGFSLSPYGMMELKLDEVRDPHCGVSSHGEGSSVRGHFPHLPTHGELFLNLFTGIHEEFSLTRSPRCVGNELRRHRSSVVGAEVATTDFTLWTLAQSILYSTPGLPETLRHLRDHFAMWDECVLAINIILMCFTDVVHQLRRHSELVQALQHLLVDERNCGYKSFIRYCLENVS”, the “soluble on expression in E. coli” value is reported as “not soluble”.
“VIDALRNNNDYEPYNKDSNNQAFNSEEITRFFSIGKYTYPSIFSELNFIINAREAFVSIQTSTIPKTAYAAVNFVETQGEDESYTDSLSTDNKRDIYADFAVIEIPLFLTNHRDYQVFNEFIKPAIETYKQLGNSSFEKKQLDQHKNDNFYMLGYPLVESSIDALILNQRRQYNNSYTEKYTPQTLTKDQRTIDLSREVPTLIQNKTENSTGSQLLVNQSLSSTSEGIIE”: the “soluble on expression in E. coli” value is on record as “not soluble”.
For the sequence “MSDKLPYKVADIGLAAWGRKALDIAENEMPGLMRMRERYSASKPLKGARIAGCLHMTVETAVLIETLVTLGAEVQWSSCNIFSTQNHAAAAIAKAGIPVYAWKGETDEEYLWCIEQTLYFKDGPLNMILDDGGDLTNLIHTKYPQLLPGIRGISEETTTGVHNLYKMMANGILKVPAINVNDSVTKSKFDNLYGCRESLIDGIKRATDVMIAGKVAVVAGYGDVGKGCAQALRGFGARVIITEIDPINALQAAMEGYEVTTMDEACQEGNIFVTTTGCIDIILGRHFEQMKDDAIVCNIGHFDVEIDVKWLNENAVEKVNIKPQVDRYRLKNGRRIILLAEGRLVNLGCAMGHPSFVMSNSFTNQVMAQIELWTHPDKYPVGVHFLPKKLDEAVAEAHLGKLNVKLTKLTEKQAQYLGMSCDGPFKPDHYRY”, the “soluble on expression in E. coli” value is reported as “soluble”.
Take “MTGKSVREVPMTEEILAESIALRLRRDILRGKLVPGTSIKERDNAAEMGVSRTPMREAIRILANEGLVQLRPSRSPIVTQLSLNEVVSFIEVLSALEMLAVTLACERATKIDIAHVRGAERKLATQYDRIDQVERFELDMDFHIALTRASHNQALSDTHMSYLRRLWYARFQSARNRHTKDRVLQQHAALVDAIERRDPTMAQTELSSHLENLRINVHAYFERAEREQLQLKNSA”: the “soluble on expression in E. coli” value is reported as “not soluble”.
“MKVLFVYAGMHPAHEPFVEAVKADVYPAYHKDVNGFVKFVEGLKMAREYPDYDVYILEGGMPMFPMYLRKKLFRKNGFVVGLLADETFINLVERQPHYSTAETLIHRISAKVLDAAIAVSPFVKEYAEKIIDVPIEVVRPAIPKDSYEKLGKVKPNLESNVIVSVGQPRFSIGMDVLVEQFRIAKKQIPDLELWIVGKGHPKEYERVEGVKVLGYVEDLSEVFEEASLFVHAGRCSAYPVATLEAMRAGLPVVVSTMTGTKEIVERVEEQVKREFGLNYDGNKFIQPLNRIFEGIVEYFKLDSEVRRIMSELYKKESEEFEPGKRGREFKEKFKKLLANFNNKEVP”: the “soluble on expression in E. coli” value is on record as “not soluble”.
Turning to “KIGFKLGGGFEYAFDNTWSLQPSLFLSTKGAKKDGNSINAMYLELPVMAAARFNVADNTNIVVNAGPYLACGIAGKTKIDLGNDTERKYDTFGDDALKRFDAGLGVGVALELGKVIVGLDGQFGLVDVEKIGNPKNTNFSIVLGYKF”, the “soluble on expression in E. coli” value was “not soluble”.
Take “MSLKVGFDNQKYLKMQSEHIRERISKFDNKLYLEFGGKLFDDYHASRVLPGFEPDSKLKMLLELKDQAEIVIVISAIDIEKSKVRGDLGITYDSDVLRLIDAFQSKGLYVGSVTITQYSGQSSADLFKSKLEALGVKVYLHYIIPGYPNNISLILSEDGYGKNEFIQTTRPLVVITAPGPGSGKMATCLSQLYHEHKRGVRAGYAKFETFPIWNLSLKHPVNVAYEAATADLNDVNMIDPCHLEAYGVTAVNYNRDVEIFPVLKAIFLRIDEHCPYKSPTDMGVNMVGNCIIDDQACRDASKQEILRRYYQTLCNVINGTSDGDEVYKLELLLNQVSVSAEDRPVIKAANDLADLNKSPAVAMQLADESIITGKTSELLGASAAVLLNALKALAGIPHETHVISPLAIGPIQQLKTQYLGSSNPRLHTDEVLIALSISAKEDENARKAMEQLPHLKGCEVHTSVILSEVDRKVFHKLGVHLTSEPTYENKKLFHEGHHHHHH”: the “soluble on expression in E. coli” value is listed as “soluble”.
Consider “MQREDDPDAYDVIWASNGTLYFTPGFKYNTPPYPANQRVLATTDNIALTNYLRQEYNKLKESEGTPTLNDIINGFGFCYNDSSNGAGLDGTYLTVSGMLDNKYRLQLLGQYNGSNWLAYRTRNGDEQSWNPWHKVLTDNINAAISARHQYTSSSYPQIYGNGILQLGGDSRNEYGVVLRSNGTDEANAFRPSVNAGTTGHLYLGVANQKWRAVFAQNGTIQTSDRNAKHDITDLDPEKITAFIMGLKPSSYVFNDADSGRTHWGLISQDIEELFPQLGMTSMDFAGFIKSPKTEDYYEDVPETVTDEETGEEKTVTRKELKTRTVEGEYIYSLRYDEFIAPLICMVQRQQRQIEYLERRLSASESKEEAKLEHHHHHH”, for which the “soluble on expression in E. coli” value is listed as “soluble”.
On to “EVVKRDRIRNKDRPAMQLYQPGARSRNRLCPPDDSTKSGDSAAERKQESGISHRKEGGEE”, for which the “soluble on expression in E. coli” value is “soluble”.
As to “MAHHHHHHMSDLRRVESLNADTFRRLNATSVVKSFWHTQLRAATAASRGAKDDSLATANEETPVATRKLRSAASSAEKSAGGLTDSTVYSSSSSSSNSRLSVSATLPGFPSPTETRRRLRAAALSAERHRAEESDEEKPDPVARTLFQNFLLQEYDALDSRPVLTVVLDLDETLVSNRDSGATGAILRPYCLHMLNALRHMQGLEVVLWTASTKETAAPVIRQLSQSGPVFDDVICRNSSWFTEPLHTKDLRLLGRDMSRVIIFDNSTACCKLNPRNAVIVDDFRGVRNTSDAALVNVYYIIERSFNGCCAGVSVLETLVKLAVEKQLCMPEVLHLPESWRHIPLREIAPLKVPPHGIFFRAHSTPLNDSIMQHWTV”, the “soluble on expression in E. coli” value was “soluble”.
For the sequence “MRGSHHHHHHKHGQFTLRDMYEQFQNIMKMGPFSQILGMIPGFGTDFMSKGNEQESMARLKKLMTIMDSMNDQELDSTDGAKVFSKQPGRIQRVARGSGVSTRDVQELLTQYTKFAQMVKKMGGIKGLF”, the “soluble on expression in E. coli” value is given as “soluble”.
On to “MGSDKIHHHHHHMEIKEMVSLARKAQKEYQATHNQEAVDNICRAAAKVIYENAAILAREAVDETGMGVYEHKVAKNQGKSKGVWYNLHNKKSIGILNIDERTGMIEIAKPIGVVGAVTPTTNPIVTPMSNIIFALKTCNAIIIAPHPRSKKCSAHAVRLIKEAIAPFNVPEGMVQIIEEPSIEKTQELMGAVDVVVATGGMGMVKSAYSSGKPSFGVGAGNVQVIVDSNIDFEAAAEKIITGRAFDNGIICSGEQSIIYNEADKEAVFTAFRNHGAYFCDEAEGDRARAAIFENGAIAKDVVGQSVAFIAKKANINIPEGTRILVVEARGVGAEDVICKEKMCPVMCALSYKHFEEGVEIARTNLANEGNGHTCAIHSNNQAHIILAGSELTVSRIVVNAPSATTAGGHIQNGLAVTNTLGCGSWGNNSISENFTYKHLLNISRIAPLNSSIHIPDDKEIWEL”, for which the “soluble on expression in E. coli” value is listed as “not soluble”.
With “GPGSMSSEHGEILRLWEKLRTIEDRTEEQVAMPSSKKTAYAHKYPMVDKLMHLIEPKFANLVRTPSVSRVVQSMIKYGSAEQVNRLLKWVSKDFSTYATDAYAHFVVCALVRHVPHEAYSKLMTHVIPSVPQLVAHKFGIEVLHSVYSSRWCSPADRSLLLLAVFKDNVAVMRRWPGYPEVEAVLKKNPSLQRRLLSRLFDLSDKLVSQKEAIGYPFVQRLVGTYVRCGTRDEVSELCDTLRPHITAISATREGAPLASLAFSLTEPKKRKEVLHSFNAQLGELCTSKYAAPVIARLFDLLYDAQMLRKYVASDLAEHIGQVVNSPYGYQILMHLLTPHEERKRRFLLPNWQEHNLFSMENKEWNHHTWLTPAFVPETVEICSKPAVTSHLAALPMLVKAFLQYVTDEAHSAKLNRHHAALIAREVLHVVQHEPLYKAAIQLSEDEEHALSKLAPAHGKREREDAAGEVETYAAAPTKCPKRENGSQKAAALTPADKRKKTKVPTVISAAAPLEGRRVKTDAKKRVKKS”, the “soluble on expression in E. coli” value is “soluble”.
In the case of “MGSDKIHHHHHHMKQLFDNVSAMCSKLTTKKYSTSFSLGIHFLHKKLHDPVYAIYGFVRFADEIVDSFHGYDKKRLMAQFRRDTAFALQDKISLNPILNSFQHVVHTYNIEWELIDTFLKSMEMDLDQSAHNEQSYKEYIIGSAEVVGLMCLRVFVKGDVDMYEKQKPHAMSLGAAFQKVNFLRDAKEDFDSLGRTYFPDVSMEKFDRHIKQNIESDIEKDFQHALIGIKQLPAESRLGVYLAYIYYKNLFHKIKSIPPERMLKERIRIPNLNKFALLFQCYFRNQFNIL”, the “soluble on expression in E. coli” value is “not soluble”.
Regarding “MGSDKIHHHHHHMKAVLVEQPGSSEQLKVVEREIPKIKEGWSLVKIKGFGINRSEIFTRKGYSPSVVFPRVLGIECVGIIEETSDKNHFFHGQKVVSIMGEMGRAFDGSYAEYVLLPNEQIYPIKTNLTWDKLAAAPESYYTAYGAYKNLKLKKQDLVLVRAGASGVALAFLNLLKASLPEIKVTASVRSLAKKQQLLDSGYDEVIIDRDSCLQTKQKFDKVLDLIGPACIDDTLNHVADGGIICLVGLLGGQWTLDNFDPIMALQNNIYLTTFYSGNINLNKLQELFDFIAKYAVPIKVEKIFTIDHIKEAHDYLESPQAFGKVIVLNGVA”, the “soluble on expression in E. coli” value is “not soluble”.
Take “MSEDGEISLSPNSAALMDGLDDFIIDKNCSGIIPNEDLERETPSADDDAEVKTSSNWAKNMRKRMFGEQCDEPEESEKKRRRTNCCFNCRGGDHSIAQCPEPKNFAEIRKNKLEFMNDKQQQHQPTGRISQVTEQQQEAKFKPGRLSQNLRKALSLGPDDIPEWVYRMRRLGFYRGYPPGYLRKSLKREFATLKIYSEDHNQEEVDNDDDEEARPAPTIQSEKVHFYMGFNKTYGALRDRERGRFEVPPFDIFCEMLQTEVARDHEGTEKIRIREERHQRSELRKIREQQKEEEEQQQRDSAEKVEKEVTVDQTISEVAAAAAAVEEKPGTPEPVGRMGESISEFIGTPIFSRRDVTGTWIEDTVPSLEAFSVGIVPFEAKEEEKPRGIFKKIMSTLKGITGRNSGDDEMKKKE”: the “soluble on expression in E. coli” value is reported as “not soluble”.
Consider “SQDPYFKIANWTNEHDDFKKAEMRMDEKHRKKVDKVMKEWGDLETRYNEQKAKDPKGAEKFKSQMNARFQKTVSSLEEEHKRMRKEIEAVHEERVQAMLNEKKRDATHDYRQALATHVNKPNKHSVLQSLKAYIRAEEKDRMHTLNRYRHLLKADSKEAAAYKPTVIHRLRYIDLRINGTLAMLRDFPDLEKYVRPIAVTYWKDYRDEVSPDISVEDSELTPIIHDDEFSKNAKLDVKA”, for which the “soluble on expression in E. coli” value was “soluble”.
As for “MAHHHHHHMGTLEAQTQGPGSMSGDRDDPRYPYPKDDAELRRRLTPMQYEVTQHAATEPPFTGEYTDTEDAGIYHCVVCGTALFESGAKYHSGCGWPSYFKPIDGEVIDEKMDYTHGMTRVEVRCNQCGAHLGHVFEDGPRDKTGLRYCINSAALNFEAKPERK”, the “soluble on expression in E. coli” value is given as “soluble”.
